Data taken from patent US20220073631A1 (QYUNS THERAPEUTICS, published 2022).

What was measured:
[1] = molecular target: IL-4Rα on human cells (HEK Blue IL-4/IL-13, A549, TF-1, HFL-1, PBMCs) (human, UniProt P24394 26-825); assay: cell-based or functional assay
[2] = molecular target: T1, human IL-4Rα (Shanghai Novoprotein Technology Co., Ltd) (human, UniProt P24394 26-232); assay: SPR, Biacore T200, antibody captured on protein A, antigen as analyte, 25 C, 1:1 model
T1 construct: Bought protein; also called hIL-4Rα; human interleukin-4 receptor alpha
Protocol: (§1) The protein A was chemically coupled to a CM5 chip, and an appropriate amount of the antibody was immobilized by a capture method such that the Rmax was less than 50 RU and the flow rate for the capture was 10 μl/min. The antigen was subject to gradient dilution, and the flow rate in the instrument was switched to 30 μl/min. The antigen was flowed through the reference channel and the channel with the immobilized antibody sequentially in an ascending order of concentration, and the running buffer was flowed through as a negative control. After each binding and dissociation was complete, the chip was regenerated with glycine, pH 1.5. Fitting was performed with the build-in software in the instrument according to a 1:1 binding model. The binding rate constant kₐ, the dissociation rate constant kd, and the equilibrium dissociation constant KD values of the antibody were calculated. Dupilumab was obtained by purchasing a commercially available medicine.

hIL-4Rα-Mu245 = molecular target: T2, hIL-4Rα-Mu245 (human, UniProt P24394 26-232); assay: SPR, Biacore T200, by the methods of Example 2
T2 construct: Printed positions fit the mature protein; also called A71L/D72R/N73A; not shown: C-terminal his-tag
T2 chain: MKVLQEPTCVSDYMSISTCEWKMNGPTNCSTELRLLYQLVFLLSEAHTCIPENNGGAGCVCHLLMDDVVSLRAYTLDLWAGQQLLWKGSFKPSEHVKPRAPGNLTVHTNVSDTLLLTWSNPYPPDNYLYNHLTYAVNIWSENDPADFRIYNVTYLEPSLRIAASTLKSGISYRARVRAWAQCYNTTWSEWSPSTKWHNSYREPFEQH

hIL-4Rα-Mu244 = molecular target: T3, hIL-4Rα-Mu244 (human, UniProt P24394 26-232); assay: SPR, Biacore T200, by the methods of Example 2
T3 construct: Printed positions fit the mature protein; also called S70Q/A71L/D72R; not shown: C-terminal his-tag
T3 chain: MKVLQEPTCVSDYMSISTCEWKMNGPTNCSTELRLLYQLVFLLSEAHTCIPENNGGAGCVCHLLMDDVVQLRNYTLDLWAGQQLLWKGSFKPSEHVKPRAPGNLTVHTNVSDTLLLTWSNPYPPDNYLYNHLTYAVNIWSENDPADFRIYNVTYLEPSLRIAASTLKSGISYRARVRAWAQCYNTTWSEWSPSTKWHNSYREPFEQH

hIL-4Rα-Mu240 = molecular target: T4, hIL-4Rα-Mu240 (human, UniProt P24394 26-232); assay: SPR, Biacore T200, by the methods of Example 2
T4 construct: Printed positions fit the mature protein; also called D66A/D67A/V68R; not shown: C-terminal his-tag
T4 chain: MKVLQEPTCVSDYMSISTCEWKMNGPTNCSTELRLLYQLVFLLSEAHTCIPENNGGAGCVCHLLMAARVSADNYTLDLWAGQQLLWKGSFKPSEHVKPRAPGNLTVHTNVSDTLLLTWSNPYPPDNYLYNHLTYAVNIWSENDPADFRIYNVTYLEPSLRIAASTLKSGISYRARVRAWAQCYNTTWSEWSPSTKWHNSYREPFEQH
Protocol: as §1
(§2) To further narrow down the key amino acids that PD2-31 binds to, multiple mutants of hIL-4Rα were designed in Loop 2 (V40FLLSEA46) and Loop 3 (M65[…]73) (Table 2). The wild-type hIL-4Rα (hIL-4Rα-ECD) and hIL-4Rα mutants were prepared using standard techniques. Briefly, the expression plasmids containing the extracellular domain of wild-type hIL-4Rα and different mutated hIL-4Rα were constructed and transfected into HEK 293F cells. After expression, the extracellular domain of wild-type hIL-4Rα and hIL-4Rα mutants with C-terminus his-tag were purified by Nickel chromatography. Purified proteins of wild-type hIL-4Rα and hIL-4Rα mutants were analyzed for interaction with PD2-31 and Dupilumab. The interaction was studied by Biacore T200, according to the methods in Example 2.

hIL-4Rα-Mu239 = molecular target: T5, hIL-4Rα-Mu239 (human, UniProt P24394 26-232); assay: SPR, Biacore T200, by the methods of Example 2
T5 construct: Printed positions fit the mature protein; also called M65I/D66A/D67A; not shown: C-terminal his-tag
T5 chain: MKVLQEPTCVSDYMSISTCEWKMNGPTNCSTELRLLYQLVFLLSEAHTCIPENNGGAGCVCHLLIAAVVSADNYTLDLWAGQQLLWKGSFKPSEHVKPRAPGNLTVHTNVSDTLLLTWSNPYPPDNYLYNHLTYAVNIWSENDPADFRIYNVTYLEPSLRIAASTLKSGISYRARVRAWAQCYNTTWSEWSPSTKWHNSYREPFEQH
Protocol: as §1, §2

hIL-4Rα-Mu242 = molecular target: T6, hIL-4Rα-Mu242 (human, UniProt P24394 26-232); assay: SPR, Biacore T200, by the methods of Example 2
T6 construct: Printed positions fit the mature protein; also called V68R/V69F/S70Q; not shown: C-terminal his-tag
T6 chain: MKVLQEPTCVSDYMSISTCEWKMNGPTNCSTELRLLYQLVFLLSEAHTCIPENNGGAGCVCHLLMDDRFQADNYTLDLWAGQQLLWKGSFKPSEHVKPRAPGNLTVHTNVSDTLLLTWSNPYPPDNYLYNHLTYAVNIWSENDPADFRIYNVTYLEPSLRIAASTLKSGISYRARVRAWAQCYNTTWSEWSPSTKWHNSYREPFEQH
Protocol: as §1, §2

hIL-4Rα-Mu243 = molecular target: T7, hIL-4Rα-Mu243 (human, UniProt P24394 26-232); assay: SPR, Biacore T200, by the methods of Example 2
T7 construct: Printed positions fit the mature protein; also called V69F/S70Q/A71L; not shown: C-terminal his-tag
T7 chain: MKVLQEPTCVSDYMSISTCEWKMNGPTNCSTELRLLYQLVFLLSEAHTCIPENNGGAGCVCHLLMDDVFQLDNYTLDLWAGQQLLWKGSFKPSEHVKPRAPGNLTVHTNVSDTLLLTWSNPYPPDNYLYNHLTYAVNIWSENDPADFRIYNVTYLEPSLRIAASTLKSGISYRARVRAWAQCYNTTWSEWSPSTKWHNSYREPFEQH
Protocol: as §1, §2

hIL-4Rα-Mu241 = molecular target: T8, hIL-4Rα-Mu241 (human, UniProt P24394 26-232); assay: SPR, Biacore T200, by the methods of Example 2
T8 construct: Printed positions fit the mature protein; also called D67A/V68R/V69F; not shown: C-terminal his-tag
T8 chain: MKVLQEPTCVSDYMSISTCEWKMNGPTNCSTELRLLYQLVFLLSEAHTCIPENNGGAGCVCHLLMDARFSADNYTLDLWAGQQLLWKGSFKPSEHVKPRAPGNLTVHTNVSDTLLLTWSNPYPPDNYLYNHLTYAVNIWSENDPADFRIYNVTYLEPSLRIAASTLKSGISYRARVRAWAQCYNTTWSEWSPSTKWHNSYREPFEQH
Protocol: as §1, §2

hIL-4Rα-Mu453 = molecular target: T9, hIL-4Rα-Mu453 (human, UniProt P24394 26-232); assay: SPR, Biacore T200, by the methods of Example 2
T9 construct: Printed positions fit the mature protein; also called D66A/D67A; not shown: C-terminal his-tag
Protocol: as §1, §2

B1: QX005N (HZD82-12) (antibody, V domains shown)
VH: EVQLVESGGGLVQPGGSLRLSCAASGFSLNSNAVGWVRQAPGKGLEYIGFINFSGITYYANWAKGRFTISRDNSKNTLYLQMNSLRAEDTAVYYCARGSAGSFDLWGQGTLVTVSS
VL: DIQMTQSPSSLSASVGDRVTITCQASESVYKNNYLAWYQQKPGKAPKLLIYRASNLASGVPSRFSGSGSGTDFTLTISSLQPEDFATYYCQGGYSSGMYPFGQGTKVEIK
notes: Humanized from rabbit clone #82, expressed as a full antibody in ExpiCHO-S cells (heavy chain 48.3 kDa, light chain 23.6 kDa)
In the case of B1, the “IC50, IL-4-induced CCL-11 release activity in HFL-1 cells (FIG. 7(B))” value [1] is reported as 0.0643 µg/mL, the “IC50, IL-4-induced CCL-17 release activity in A549 cells (FIG. 5(B))” value [1] is reported as 0.0461 µg/mL and the “IC50, IL-4-induced CCL-17 release activity in PBMCs (FIG. 9(B))” value [1] is reported as 0.0678 µg/mL. For the same binder, the “IC50, IL-4-induced STAT6 phosphorylation activity in HEK Blue IL-4/IL-13 cells (FIG. 4(B))” value [1] was 0.0065 µg/mL, the “IC50, IL-4-induced proliferation activity of TF-1 cells (FIG. 6(B))” value [1] was 0.0193 µg/mL and the “IC50, IL-13-induced CCL-11 release activity in HFL-1 cells (FIG. 7(D))” value [1] was 0.0895 µg/mL. For the same binder, the “IC50, IL-13-induced CCL-17 release activity in A549 cells (FIG. 5(D))” value [1] was 0.0495 µg/mL, the “IC50, IL-13-induced CCL-17 release activity in PBMCs (FIG. 9(D))” value [1] was 0.117 µg/mL and the “IC50, IL-13-induced STAT6 phosphorylation activity in HEK Blue IL-4/IL-13 cells (FIG. 4(D))” value [1] was 0.0213 µg/mL. The “IC50, IL-13-induced proliferation activity of TF-1 cells (FIG. 6(D))” value [1] was 0.0161 µg/mL, the Kd [2] was 0.207 nM and the koff [2] was 9.9e-05 s⁻¹. The kon [2] was 481000 M⁻¹ s⁻¹.

B2: Dupilumab (antibody, V domains shown)
VH: EVQLVESGGGLEQPGGSLRLSCAGSGFTFRDYAMTWVRQAPGKGLEWVSSISGSGGNTYYADSVKGRFTISRDNSKNTLYLQMNSLRAEDTAVYYCAKDRLSITIRPRYYGLDVWGQGTTVTVSS
VL: DIVMTQSPLSLPVTPGEPASISCRSSQSLLYSIGYNYLDWYLQKSGQSPQLLIYLGSNRASGVPDRFSGSGSGTDFTLKISRVEAEDVGFYYCMQALQTPYTFGQGTKLEIKR
B2 was tested, and the Kd (hIL-4Rα-Mu245) was > 10 nM, the Kd (hIL-4Rα-Mu244) was > 10 nM and the “IC50, IL-4-induced CCL-11 release activity in HFL-1 cells (FIG. 7(A))” value [1] was 0.0968 µg/mL. For the same binder, the “IC50, IL-4-induced CCL-11 release activity in HFL-1 cells (FIG. 7(B))” value [1] was 0.0334 µg/mL, the “IC50, IL-4-induced CCL-17 release activity in A549 cells (FIG. 5(A))” value [1] was 0.0449 µg/mL and the “IC50, IL-4-induced CCL-17 release activity in A549 cells (FIG. 5(B))” value [1] was 0.0449 µg/mL. For the same binder, the “IC50, IL-4-induced CCL-17 release activity in PBMCs (FIG. 9(A))” value [1] was 0.029 µg/mL, the “IC50, IL-4-induced CCL-17 release activity in PBMCs (FIG. 9(B))” value [1] was 0.0436 µg/mL and the “IC50, IL-4-induced STAT6 phosphorylation activity in HEK Blue IL-4/IL-13 cells (FIG. 4(A))” value [1] was 0.00439 µg/mL. For the same binder, the “IC50, IL-4-induced STAT6 phosphorylation activity in HEK Blue IL-4/IL-13 cells (FIG. 4(B))” value [1] was 0.00454 µg/mL, the “IC50, IL-4-induced proliferation activity of TF-1 cells (FIG. 6(A))” value [1] was 0.0219 µg/mL and the “IC50, IL-4-induced proliferation activity of TF-1 cells (FIG. 6(B))” value [1] was 0.0188 µg/mL. For the same binder, the “IC50, IL-13-induced CCL-11 release activity in HFL-1 cells (FIG. 7(C))” value [1] was 0.0475 µg/mL, the “IC50, IL-13-induced CCL-11 release activity in HFL-1 cells (FIG. 7(D))” value [1] was 0.0869 µg/mL and the “IC50, IL-13-induced CCL-17 release activity in A549 cells (FIG. 5(C))” value [1] was 0.0373 µg/mL. The “IC50, IL-13-induced CCL-17 release activity in A549 cells (FIG. 5(D))” value [1] was 0.0465 µg/mL, the “IC50, IL-13-induced CCL-17 release activity in PBMCs (FIG. 9(C))” value [1] was 0.0984 µg/mL and the “IC50, IL-13-induced CCL-17 release activity in PBMCs (FIG. 9(D))” value [1] was 0.082 µg/mL. For the same binder, the “IC50, IL-13-induced STAT6 phosphorylation activity in HEK Blue IL-4/IL-13 cells (FIG. 4(C))” value [1] was 0.0128 µg/mL, the “IC50, IL-13-induced STAT6 phosphorylation activity in HEK Blue IL-4/IL-13 cells (FIG. 4(D))” value [1] was 0.0127 µg/mL and the “IC50, IL-13-induced proliferation activity of TF-1 cells (FIG. 6(C))” value [1] was 0.0205 µg/mL. The “IC50, IL-13-induced proliferation activity of TF-1 cells (FIG. 6(D))” value [1] was 0.0149 µg/mL, the Kd (hIL-4Rα-Mu240) was 4.07 nM and the koff (hIL-4Rα-Mu240) was 0.000421 s⁻¹. It also gave a kon (hIL-4Rα-Mu240) of 103000 M⁻¹ s⁻¹, a Kd (hIL-4Rα-Mu239) of 0.223 nM and a koff (hIL-4Rα-Mu239) of 5.63e-05 s⁻¹. For the same binder, the kon (hIL-4Rα-Mu239) was 253000 M⁻¹ s⁻¹, the Kd (hIL-4Rα-Mu242) was 27.3 nM and the koff (hIL-4Rα-Mu242) was 0.00357 s⁻¹. For the same binder, the kon (hIL-4Rα-Mu242) was 131000 M⁻¹ s⁻¹, the Kd (hIL-4Rα-Mu243) was 0.0361 nM and the koff (hIL-4Rα-Mu243) was 3.41e-05 s⁻¹. It also gave a kon (hIL-4Rα-Mu243) of 945000 M⁻¹ s⁻¹, a Kd (hIL-4Rα-Mu241) of 41.2 nM and a koff (hIL-4Rα-Mu241) of 0.00444 s⁻¹. For the same binder, the kon (hIL-4Rα-Mu241) was 108000 M⁻¹ s⁻¹, the Kd (hIL-4Rα-Mu453) was 0.196 nM and the koff (hIL-4Rα-Mu453) was 3.78e-05 s⁻¹. It also gave a kon (hIL-4Rα-Mu453) of 193000 M⁻¹ s⁻¹.
